Assay results published in article PMC7195849 (Science signaling, 2019).
Ends that are not written are not given here. * marks the point of attachment. Biotin = O=C1N[C@H]2[C@H](CS[C@H]2CCCCC(=O)*)N1

T1: GST-PKCθ-C2^WT (GST fusion of the C2 domain of human PKCθ, aa 1–144) (human, UniProt Q04759 1-144)
T1 sequence (looked up): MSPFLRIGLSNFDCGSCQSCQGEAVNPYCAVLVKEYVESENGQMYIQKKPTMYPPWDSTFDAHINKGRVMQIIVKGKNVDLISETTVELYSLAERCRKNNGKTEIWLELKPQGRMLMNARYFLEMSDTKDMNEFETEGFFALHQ


Assays:
[1] = biological target: PKCθ C2 domain, 1-144 (UniProt Q04759); experiment: ELISA, immobilized biotin-peptide, soluble GST-C2; details: reference: unphosphorylated Y126 peptide; sites Y126
[2] = biological target: T1, GST-PKCθ-C2^WT (GST fusion of the C2 …); experiment: ELISA

binding against the reference [1]	binding result [2]	Molecule
stronger		Zap70 (from UniProt P43403) pY126 peptide
	binds	Biotin-AMVRDYVRQTWK [Zap70 peptide Y126 (non-phosphorylated), N-terminally biotinylated]
